B1: Peptide No. 167 (peptide)
peptide: QRFVTGHFG[dP]LYPVNGP-NH2
modifications: N-terminus assumed
SMILES: CC(C)C[C@H](NC(=O)[C@H]1CCCN1C(=O)CNC(=O)[C@H](Cc1ccccc1)NC(=O)[C@H](Cc1c[nH]cn1)NC(=O)CNC(=O)[C@@H](NC(=O)[C@@H](NC(=O)[C@H](Cc1ccccc1)NC(=O)[C@H](CCCNC(=N)N)NC(=O)[C@@H](N)CCC(N)=O)C(C)C)[C@@H](C)O)C(=O)N[C@@H](Cc1ccc(O)cc1)C(=O)N1CCC[C@H]1C(=O)N[C@H](C(=O)N[C@@H](CC(N)=O)C(=O)NCC(=O)N1CCC[C@H]1C(N)=O)C(C)C
B2: Peptide No. 169 (peptide)
peptide: QRFVTGHFG[dP]LYPINGP-NH2
modifications: N-terminus assumed
SMILES: CC[C@H](C)[C@H](NC(=O)[C@@H]1CCCN1C(=O)[C@H](Cc1ccc(O)cc1)NC(=O)[C@H](CC(C)C)NC(=O)[C@H]1CCCN1C(=O)CNC(=O)[C@H](Cc1ccccc1)NC(=O)[C@H](Cc1c[nH]cn1)NC(=O)CNC(=O)[C@@H](NC(=O)[C@@H](NC(=O)[C@H](Cc1ccccc1)NC(=O)[C@H](CCCNC(=N)N)NC(=O)[C@@H](N)CCC(N)=O)C(C)C)[C@@H](C)O)C(=O)N[C@@H](CC(N)=O)C(=O)NCC(=O)N1CCC[C@H]1C(N)=O
B3: Peptide No. 174 (peptide)
peptide: QRFVTGHFG[dP]IYPANGP-NH2
modifications: N-terminus assumed
SMILES: CC[C@H](C)[C@H](NC(=O)[C@H]1CCCN1C(=O)CNC(=O)[C@H](Cc1ccccc1)NC(=O)[C@H](Cc1c[nH]cn1)NC(=O)CNC(=O)[C@@H](NC(=O)[C@@H](NC(=O)[C@H](Cc1ccccc1)NC(=O)[C@H](CCCNC(=N)N)NC(=O)[C@@H](N)CCC(N)=O)C(C)C)[C@@H](C)O)C(=O)N[C@@H](Cc1ccc(O)cc1)C(=O)N1CCC[C@H]1C(=O)N[C@@H](C)C(=O)N[C@@H](CC(N)=O)C(=O)NCC(=O)N1CCC[C@H]1C(N)=O
B4: Peptide No. 176 (peptide)
peptide: QRFVTGHFG[dP]YYPANGP-NH2
modifications: N-terminus assumed
SMILES: CC(C)[C@H](NC(=O)[C@H](Cc1ccccc1)NC(=O)[C@H](CCCNC(=N)N)NC(=O)[C@@H](N)CCC(N)=O)C(=O)N[C@H](C(=O)NCC(=O)N[C@@H](Cc1c[nH]cn1)C(=O)N[C@@H](Cc1ccccc1)C(=O)NCC(=O)N1CCC[C@@H]1C(=O)N[C@@H](Cc1ccc(O)cc1)C(=O)N[C@@H](Cc1ccc(O)cc1)C(=O)N1CCC[C@H]1C(=O)N[C@@H](C)C(=O)N[C@@H](CC(N)=O)C(=O)NCC(=O)N1CCC[C@H]1C(N)=O)[C@@H](C)O
B5: Peptide No. 175 (peptide)
peptide: QRFVTGHFG[dP]FYPANGP-NH2
modifications: N-terminus assumed
SMILES: CC(C)[C@H](NC(=O)[C@H](Cc1ccccc1)NC(=O)[C@H](CCCNC(=N)N)NC(=O)[C@@H](N)CCC(N)=O)C(=O)N[C@H](C(=O)NCC(=O)N[C@@H](Cc1c[nH]cn1)C(=O)N[C@@H](Cc1ccccc1)C(=O)NCC(=O)N1CCC[C@@H]1C(=O)N[C@@H](Cc1ccccc1)C(=O)N[C@@H](Cc1ccc(O)cc1)C(=O)N1CCC[C@H]1C(=O)N[C@@H](C)C(=O)N[C@@H](CC(N)=O)C(=O)NCC(=O)N1CCC[C@H]1C(N)=O)[C@@H](C)O
B6: Peptide No. 279 (peptide)
peptide: RFXTGHFGXXYPC
modifications: Pen3; Sar9; NMeLeu10; intrachain disulfide; N-termini joined by Bis-dPEG6 diacid linker; C-terminal amide
B7: Peptide No. 287 (peptide)
peptide: RFXTGHFGXXYPCG
modifications: Pen3; Sar9; NMeLeu10; intrachain disulfide; C-termini joined through a branching Lys
notes: dimer made as Peptide No. 280
B8: Peptide No. 286 (peptide)
peptide: RFXTGHFGXXYPC
modifications: Pen3; Sar9; NMeLeu10; intrachain disulfide; N-termini joined by Glu (from Boc-Glu(OH)-OH) with a free amine; C-terminal amide
B9: Peptide No. 288 (peptide)
peptide: RFXTGHFGXXYPCGG
modifications: Pen3; Sar9; NMeLeu10; intrachain disulfide; C-termini joined through a branching Lys
notes: dimer made as Peptide No. 280
B10: Peptide No. 151 (peptide)
peptide: QRF[Pen]TGHF[dF][dA]LYPCNGP-NH2
modifications: disulfide 4-14; N-terminus assumed
SMILES: CC(C)C[C@@H]1NC(=O)[C@@H](C)NC(=O)[C@@H](Cc2ccccc2)NC(=O)[C@H](Cc2ccccc2)NC(=O)[C@H](Cc2c[nH]cn2)NC(=O)CNC(=O)[C@H]([C@@H](C)O)NC(=O)[C@@H](NC(=O)[C@H](Cc2ccccc2)NC(=O)[C@H](CCCNC(=N)N)NC(=O)[C@@H](N)CCC(N)=O)C(C)(C)SSC[C@@H](C(=O)N[C@@H](CC(N)=O)C(=O)NCC(=O)N2CCC[C@H]2C(N)=O)NC(=O)[C@@H]2CCCN2C(=O)[C@H](Cc2ccc(O)cc2)NC1=O
B11: Peptide No. 289 (peptide)
peptide: RFXTGHFGXXYPC
modifications: Pen3; Sar9; NMeLeu10; intrachain disulfide; N-termini joined by Asp; linker amine acylated with PEG 30 kDa succinimidyl ester; C-terminal amide
notes: also called pegylated analog of Peptide No. 285
B12: Peptide No. 25 (peptide)
peptide: QRFCGHF[βAla]LYPCNGP-NH2
modifications: disulfide 4-12; N-terminus assumed
SMILES: CC(C)C[C@@H]1NC(=O)CCNC(=O)[C@H](Cc2ccccc2)NC(=O)[C@H](Cc2c[nH]cn2)NC(=O)CNC(=O)[C@@H](NC(=O)[C@H](Cc2ccccc2)NC(=O)[C@H](CCCNC(=N)N)NC(=O)[C@@H](N)CCC(N)=O)CSSC[C@@H](C(=O)N[C@@H](CC(N)=O)C(=O)NCC(=O)N2CCC[C@H]2C(N)=O)NC(=O)[C@@H]2CCCN2C(=O)[C@H](Cc2ccc(O)cc2)NC1=O
notes: printed QRFCGHF-betaAla-LYPCNGP (no Thr)
B13: Peptide No. 280 (peptide)
peptide: RFXTGHFGXXYPC
modifications: sequence analogous to Peptide No. 235; C-termini joined through a branching Lys (Fmoc-Lys(Fmoc)-OH); intrachain disulfide
notes: dimer

Positions of bridges follow the written chain, without caps; N, C: chain ends. Non-standard residues stand in square brackets, D forms with d. No end group written: not given here. Pen = CC(C)(S)[C@H](N)C(=O)O; βAla = NCCC(=O)O Some results are limits rather than exact numbers.

The target of one assay is T1, soluble human FcRn (shFcRn) (human, UniProt P55899 24-297; P61769 21-119, biotinylated with Sulfo-NHS-LC-Biotin in the ELISA; amine-coupled to a CM5 chip in SPR).
T1 construct: also called biotinylated shFcRn
T1 sequence (P55899 24-297 limits assumed, chain 1 of 2): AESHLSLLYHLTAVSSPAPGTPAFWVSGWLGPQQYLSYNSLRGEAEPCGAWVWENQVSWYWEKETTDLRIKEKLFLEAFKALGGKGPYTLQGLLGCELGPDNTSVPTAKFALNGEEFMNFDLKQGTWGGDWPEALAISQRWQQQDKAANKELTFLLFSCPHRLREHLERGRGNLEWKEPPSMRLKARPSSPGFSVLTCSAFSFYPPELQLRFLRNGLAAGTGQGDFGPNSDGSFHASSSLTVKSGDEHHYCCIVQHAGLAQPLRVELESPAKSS
T1 sequence (P61769 21-119 limits assumed, chain 2 of 2): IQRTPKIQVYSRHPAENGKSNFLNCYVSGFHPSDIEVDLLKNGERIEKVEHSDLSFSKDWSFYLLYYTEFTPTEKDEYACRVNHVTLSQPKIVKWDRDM
The assay is described as follows: SPR, pH 6. On the procedure: The following steps were performed to cross-link soluble human or cynomolgus FcRn to the dextran surface of a CM5 sensor chip (Biacore AB, Uppsala, Sweden) by an amine coupling reaction involving 1-ethyl-(3-dimethylaminopropyl)-carbodiimide hydrochloride (EDC) (Biacore AB, Uppsala, Sweden) and N-hydroxysuccinimide (NHS) (Biacore AB, Uppsala, Sweden) as recommended by Biacore (BIAapplications Handbook, version AB, section 4.2, Biacore AB, Uppsala, Sweden). The FcRn protein was diluted in 50 mM sodium acetate, pH 4.5 (Biacore AB, Uppsala, Sweden) to a concentration of 10 to 30 µg/ml and used to coat one flow cell on the sensor chip. Residual sites on the FcRn flow cell were blocked with 1 M ethanolamine hydrochloride pH 8.5 (Biacore AB, Uppsala, Sweden). A control flow cell was blocked with ethanolamine for reference subtraction. For analysis of the monomeric peptides, FcRn was coated to a final density of 4000-5000 response units (RU). For analysis of the peptide dimers, FcRn was coated to a density of 2000-2500 RU. All SPR measurements were performed using a BIACORE 3000 Instrument (Biacore AB Uppsala, Sweden). For measurements done at either pH 6 or pH 7.4, experiments were performed in 50 mM phosphate, 100 mM sodium chloride, 0.01% surfactant P20 (Biacore AB, Uppsala, Sweden).
A. Representative Procedure for the Determination of Binding Constant of Monomeric Peptides Ten 2-fold dilutions of the peptide were injected over the FcRn-CM5 chip at a rate of 20 µl/min for 2 min. The peptide was dissociated from the chip for 2.5 minutes with buffer. Any remaining peptide was removed from the chip with a 30 second injection of HBS-P buffer (Biacore AB, Uppsala, Sweden) at a rate of 30 µl/min. Sensorgrams were generated and analyzed using BiaEval software version 3.1 (Biacore AB, Uppsala, Sweden). The equilibrium RU observed for each injection was plotted against concentration. The equilibrium K_D values were derived by analysis of the plots using the steady state affinity model included in the BiaEval software.
(In general: SPR reads the build-up and loss of mass on a sensor chip optically.)
Broadly, the Kd is the concentration at which binding is half-saturated. Read a low Kd as tighter binding. Regarding RFXTGHFGXLYPC (Pen3; D-Pro9; disulfide; C-terminal amide) [Peptide No. 142], the affinity, expressed as Kd, was 140 nM. This lies in the sub-micromolar range.
On the same count and under the same terms, next, QRFXTGHFXGLYPCNGP (Pen4; Sar9; disulfide; C-terminal amide) [Peptide No. 111]: 2000 nM; QRFXTGHFXPLYPCNGP (Pen4; D-Phe9; disulfide; C-terminal amide) [Peptide No. 203]: 3800 nM.
On to QRFDTGHFGXLYPKNGP (D-Ala10; lactam bridge Asp4-Lys14 side chains; C-terminal amide) [Peptide No. 105], for which the dissociation constant Kd came out at 2100 nM.
On the same count and under the same terms, next, RFXTGAFGXXYPC (Pen3; Sar9; NMeLeu10; disulfide; C-terminal amide) [Peptide No. 266]: 9900 nM.

The next assay addresses T1, soluble human FcRn (shFcRn). The assay is described as follows: competition ELISA vs human IgG. On the procedure:
The wells were coated with 100 μl/well of 1 μg/ml biotinylated-shFcRn in Buffer A. The plate was sealed and incubated at 37° C. for 2 hours. Afterwards, the plate was washed with 200 μl/well of Buffer B (Buffer B: 100 mM MES pH 6, 150 mM NaCl, 0.5% BSA IgG-free (Jackson ImmunoResearch, West Grove, Pa.), 0.05% Tween-20). […] To allow for mixing, the plate was rocked for 2 minutes, sealed and incubated at 37° C. for 2 hours. […] The plate was covered, incubated for 30 minutes at room temperature and washed 4 times with 200 μl/well of ice-cold buffer B. SureBlue TMB substrate solution (100 μl/well, KPL, Gaithersburg, Md.) was added and the plate was allowed to incubate at room temperature until color developed, which took 5 to 10 minutes. Once color developed, 100 μl/well of TMB stop solution (KPL, Gaithersburg, Md.) was added and the absorbance was measured at 450 nm.
A general note: In an ELISA, binding on a coated surface is turned into a signal by an enzyme label.
The IC50 is the midpoint of a concentration-inhibition curve. Lower therefore signals greater potency in that assay. Take B1: the IC50 was 93 µM.
B2 displayed an IC50 of 72 µM.
Still for that read-out and setting: as for B3, the figure is 94 µM; as for QRFVTGHFGXLYPYNGP (D-Pro10; unbridged; C-terminal amide) [Peptide No. 171], 150 µM.
Still for that read-out and setting: next, B4: 230 µM; QRFVTGHFGXLYPWNGP (D-Pro10; unbridged; C-terminal amide) [Peptide No. 172]: 150 µM; B5: 200 µM.
On the same count and under the same terms, next, B6: 0.007 µM.
In turn, B7 gave a concentration for half-maximal inhibition (IC50) of 0.02 µM.
QRXXTGHFGGLYPCNGP (D-Phe3; Pen4; disulfide; C-terminal amide) [Peptide No. 96] registered an IC50 of 11.4 µM.
Still for that read-out and setting: next, B8: 0.0056 µM.
Same read-out and setting: as for QRFCTGHFGGLYPXNGP (D-Cys14; disulfide; C-terminal amide) [Peptide No. 30], the figure is 125 µM.
On the same count and under the same terms, next, B9: 0.016 µM; B10: 4.3 µM; QRFXTGHFXGLYPCNGP (Pen4; D-Arg9; disulfide; C-terminal amide) [Peptide No. 49]: 4.1 µM.
In turn, QRFXTGHFXGLYPCNGP (Pen4; D-Tyr9; disulfide; C-terminal amide) [Peptide No. 53] came in with a concentration for half-maximal inhibition (IC50) of 3.2 µM. This IC50 and that of the molecule before are within 1.5-fold of each other.
Still for that read-out and setting: next, QRFCTGHFGGLFPCNGP (disulfide; C-terminal amide) [Peptide No. 26]: more than 125 µM; B11: 0.018 µM.
The same measure, in the same setting: as for B12, the figure is more than 125 µM.
Turning to B13, the IC50 stood at 0.025 µM. This counts as double-digit nanomolar.
